# Experimental data reported in the supplement of paper PMC9170038.
# Test system: K4 kissing-loop RNA reporter
# Test: apparent KD of K4 kissing-loop reporter; higher = weaker reporter binding
# Details: Eterna round: R107; input ligand: arginine 13.2 mM
# Description: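 RNA-MaP round R107: designed RNA switches with theophylline, tryptophan, arginine or FMN aptamers are transcribed on-chip within common flanks. They are titrated with a labelled K4 kissing-loop RNA reporter in RNA-MaP buffer (100 mM Tris pH 7.5, 80 mM KCl, 4 mM MgCl2), without ligand or with the indicated ligand. Median apparent KD per design.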
# 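Further: bound reporter read as fluorescence of individual clusters on recovered sequencing chips by microscopy, with normalized cluster intensities fitted with a binding model.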
row,Sequence,apparent KD of K4 kissing-loop reporter [nM]
1,AAUUUAUUAUCUGAUACCAGACUUUUUCUUGUUUAUAAGUCAAGUGAUGUUUGACUUUUAGUCCCUUGGCAGCAGUAUUUUUUAA [JR_Nu_SSTheophyB_Sub026],128
2,GGUAUCCAGUACCAUUGCGUUAAAACAGAAGGAGCGAGUAUGGACUCAGGUAGGUCGCUGUUUAUAGUCGAGUGAUGUUCGAAUC [Same State Arginine A GF 15],280
3,CCAGGAUGAUGAGGAUGAUGAAUUACUGAAGGAGCGCAUAUGGUUGCAGGUAGGUCGCGGUGAACAAGUAUAGUGAUGUUAUGCC [SSArgA.W],615
4,UUUGGUUUCUCGGCCGCCACUCGUUGGUUAUGGGCUUCAGGGAUAUAGUGAUGUUAUGUAUAGAAGAGGACCGGGAGAAGGAAGG [ExTryptoB.Dq],245
5,UCGCCAAAGUCGGCCGCCACUCCGGGCCCUAUAAAUGGGCGCAGUGAUGUUGCGGCUAGGCCUCUGAGGACCGGGACUUUGUAGA [Esenusza],0.509
6,UGGACAUGACUCGAUAAGAGUCAAUGGGAUACCAGUGACGAAAGUCACCCUUGGCAGCUCAACUGCCAGUGAUGUUGGUAGUCCU [Astros-Elimod],119
7,GUAUCGCUAGGAGGAUAUUUCGUUUUUCAUAGCAAUGGCUAUGCGGAGUGAUGUUCCGAUUUACCGGAAGAAGGCCUAGUGAUAC [FMN B 26],172
8,AGUAGUUGGACGGCCGCCACUAGAACAGCUUUGCCAAAGGCAGAGCACUAGAGUGAUGUUCUAGCUAGGACCGGGUCCAACUACA [Omei KL Tryp B SS A v1],306
9,UGACUGGACUGAAGGAGCGAGGACGGUCAUAGACCGAAAUCAGUGAUGUUGAAAGAUAAACCUCAGGUAGGUCGCAGUCUAGUCU [ArgBS 1 #SwitchBubble #StaticStem],918
10,AACUGUCAAGGCCGACAUUACUGAGGUGAUACCAGCAUCGAAAGAUGCCCUUGGCAGCACCAACUUGCAGUGAUGUUGCAAGUAA [BrourdMod 14 - Jieux - Exclusion - Theophylline A],158
11,CCUAGUCGGAUACUCAAUCCAAUGCGAGAUACCAGCGGUCUUACGCGCCCUUGGCAGCUCAUAAUGAUGAACCAGUGAUGUUGGG [theeternabot_sameState_KL_Theo_A_40],268
12,GGUACAGCGGAAGGAUAUCUGUCAUGGACGAUCGUAGCUUGAGCUCCCUGAGUGAUGUUUAGGAUGAGAGAAGGUCCACUCGUAU [theeternabot_exclusion_KL_FMN_B_2],358
13,UUUAACGAGUGAUGUUCGAAGAGUAAUGGUGAGGAUAUCGAUUUUUCGAGAAGGCGCCUCGAAGUGAUACGAAAGUAUCGCUUCG [FMN A 6],247
14,AGAUGUCUCUGGGAUACCAGUCGGAGUCUCAGGGCUCGGAGUGAUGUUCUGGGAUGUUUCGGCCCUUGGCAGCCCUGGGACUCCC [#2 Exclusion - Theophylline B Attempt #27 (HarryS)],514
15,AAUCAAUACAGAAGGAGCGUGACAAUUACUAUUGAAUUAGGAGCUAGUGAUGUUAGCAUAACACAGGUAGGUCGCUGUACAUUUA [JR_SSArginiB_Sub012],175
16,GCCGUACGCAUGGAUACCAGCAAGUAUAUAUGCUAGUGAUGUUAGCGCUAUGCGAUGCGGUGCCCUUGGCAGCCAUGCGUACGGC,85.2
17,UCUGGAGCGUAUGAUACCAGCAGAGAGAGACAGGAAGUAUAGUGAUGUUAUAUGAGAGAAUGCCCUUGGCAGCGUGUGCAGUGGC [#26 K4 Theophylline B Same State],56.5

row,Sequence,apparent KD of K4 kissing-loop reporter [nM]
1,GACGGGCAGUGAUGUUGCCGGUCUCUUGGACGAGGACCGGUACGGCCGCCACUCGAUCUGAUGCGAGAAUUGUAUCUUUUAAUAA [Tegesosoat],177
2,GGAUAGGACAGAGGAUAUGGGCUAGGCAAGAAUAACUUGUCUAGCAAAUCCAUGAGGAGUGAUGUUCCAGAAGGUUGUCCUAUCG [FmnBX 1 U75],108
3,GUGACCUACUCAGGAUAUCCGCAGUGAUGUUGCGGUUGGCCUGAGCGACAUGAAAAUCUUACUACAGGAGAAGGGAGAGGGUUAC [Leanteti],92.7
4,AAUUUAUUAACUGAUACCAGACUUAAUGAAUUGUAAAUUACUAGUGAUGUUAGUGAAUCUGUCCCUUGGCAGCAGUAUUUAUUAA [JR_ExcTheophyB_Sub010],209
5,GAGGUACAGGCGGCCGCCACUAGUGAUGUUAGUGAUAAAAGAUAUAGUAAAUAUCGGCAUGUAGAUAGGACCGGGCCUGAUGGAG [ptvcmullin],214
6,AACGCUGGUGAAUAACACUAGCGAAAAUUCCGAGGACCGGUACGGCCGCCACUCGGCUAACUGCGAGUGAUGUUCGAUAAUAAAA [Mat - Mod of OpenEnded 3 - D9],183
7,GAGAAUAACGGAAGGAGCGAGUAAUGGAGUGAUGUUCCAAUCAAUAAAACACAAUAAAAUACUCAGGUAGGUCGCCGUAGUAGUU [Exclusion Argiie B GF 12],339
8,GGGAAGAAGGCGGCCGCCACUGCAGAAGAGACAGAGAGGGUAGAAGAGGAGUGAUGUUCCAAGAACAGGACCGGGCCAAGAAGGG [whbob_SS_Tryp_B_t30],172
9,AUUUUUUUGUCAGGAUAUUAGUAUGCGUUUGGUUUGUUAGUGAUGUUGAUAUUUUGUUUAUGUAUUUAAGAAGGGAUUUAGCGGU [yyitemullin],348
10,AGAUACUUUAUCGCUAGAGGCAUUGCAGAUACCAGCCUAUCUAGAGGCCCUUGGCAGCUGGAGUGAUGUUUCGGCUUAGCUAAAG [theeternabot_exclusion_KL_Theo_A_32],317
11,CAUAGGAAACUAUGUUUCUCUCUGACUGAAGGAGCGCGUGAAAACGCAGGUAGGUCGCAGAAUUUAACAGAGAGUGAUGUUCUCA [Ex Arginine A K4 12],396
12,UGCACGUAGUGAUGUUACAGCAAGUUUAUGAAGGAUAUGAGGUUAGUCAGAAGGUCAGCCGUCUCGUUGUAAGCACCUUAUCAUU [theeternabot_exclusion_KL_FMN_A_14],144
13,GGAUCCGCCAGUGAUGUUGGAGAAAACUCCAAGGAUAUGACGAAAGUCAGAAGGUGGUAGACUGGACAAAGUCCGGUCGGAUCCA [FmnA 26 #SwitchBubble #K4Early],331
14,UUAGAGGCCCAGUGAUGUUGGGUGGUUGGGCGAGGACCGGUACGGCCGCCACUCGCCGCGGAACUAUCGGAAUCUCGCUCGGCUA [Aninxearqu],233
15,GGAUCCACCAGUGAUGUUGGAGAAAACUUCAAGGAUAUGACGAAAGUCAGAAGGUGGUAGACUGGUCAAAGUCCGGUCGGAUCCA [FmnA10 U29+U66],120
16,UUUUACGAGUGAUGUUCGUAUUGUAAUAGUUAGGAUAUCGUUUUUUCGAGAAGGAACUUCGAAGUGAUACGAAAGUAUCGCUUCG [FMN A 10],142

# Same assay, conditions: Eterna round: R107; input ligand: none
row,Sequence,apparent KD of K4 kissing-loop reporter [nM]
1,AUCGAUAUCAGAGGAUAUGCUUAAUAGAUUUAUUAUUAUCUAUUAUGCAGUGAUGUUGCAUAUUUUGCAGAAGGCUGAUUUCGAA [JR_SSFMNB_Sub019],447
2,CUUGAUGGAAACAUCGAGUAGAUUACUGAUACCAGUAUCGAUAGAUACCCUUGGCAGCAGAAUCAGUGAUCACGAGUGAUGUUCG [Ex Theophylline A K4 8],529
3,AGGUGAGACUGAAGGAGCGAUCGCGCCAGUGAUGUUGGUGAGCAUGACAAAGUCAUGCACGAUCAGGUAGGUCGCAGUCUUACUC [Omei KL Arginine B SS B v2],206
4,AAGAGGUAGGCGGCCGCCACUAGUUGUGAACACAUACGAGCCAGUGAUGUUGGUAUUGUGGGCGGUAGGACCGGGCCUACCUGAA [Exclusion - Tryptophan B (Freestyle 19)],358
5,UCUCUUCUCAGUGAUGUUGAGUAAUCGGAAGGAGCGCGUGAAAACGCAGGUAGGUCGCCGAUUUGUGAAGUAUCUUCGCAAGAGA [Arginine A K4 26],412
6,AAGGUCACUACUACAGUGAUGUUGUAGGAGCAGGAUAUGCAGAAAUGCAGAAGGGCUCGCUCCAGGUGACCGAAUGAAACAUUCA [Omei KL FMN A SS A v3],573
7,GGCGAUGAGUGAUGUUCAAAGAAUAAUGAUACCAGCUGAUGUCGAAGCCCUUGGCAGCAUAGAUACACCAAGUGAUGGUAAUGCC [Default title],237
8,AACGGCCAGUCGGCCGCCACUCGAUGCAGUGAUGUUGCUAACUUUCUAAAAGAGUGAUGUUCAUGGAGGACCGGGACUAAUGUAA [#29 K4 Tryptophan B Exclusion],346
9,GGACCGCCAGUGAUGUUGGAGAUAAACUCCAAGGAUAUGACGAAAGUCAGAAGGUGGUAAUAAGACGUCAAAGACGUCAGGUCCA [FmnA 21 #SwitchBubble #K4Early],361
10,AAAACUCAUGGCUUAUAUCCGUGUCUCGAAGGAGCGUACAGCGGUACAGGUAGGUCGCGAGACAUGAGUGAUGUUCAUGUGUAAA [KL-XArg-A6 #analogue],129
11,AAUUUAUUAUCUGAUACCAGACUUUUUCUUGUUUAUAAGUCAAGUGAUGUUUGACUUUUAGUCCCUUGGCAGCAGUAUUUUUUAA [JR_Nu_SSTheophyB_Sub026],123
12,GGUAUCCAGUACCAUUGCGUUAAAACAGAAGGAGCGAGUAUGGACUCAGGUAGGUCGCUGUUUAUAGUCGAGUGAUGUUCGAAUC [Same State Arginine A GF 15],281
13,CCAGGAUGAUGAGGAUGAUGAAUUACUGAAGGAGCGCAUAUGGUUGCAGGUAGGUCGCGGUGAACAAGUAUAGUGAUGUUAUGCC [SSArgA.W],795
14,UUUGGUUUCUCGGCCGCCACUCGUUGGUUAUGGGCUUCAGGGAUAUAGUGAUGUUAUGUAUAGAAGAGGACCGGGAGAAGGAAGG [ExTryptoB.Dq],288
15,UCGCCAAAGUCGGCCGCCACUCCGGGCCCUAUAAAUGGGCGCAGUGAUGUUGCGGCUAGGCCUCUGAGGACCGGGACUUUGUAGA [Esenusza],152
16,UGGACAUGACUCGAUAAGAGUCAAUGGGAUACCAGUGACGAAAGUCACCCUUGGCAGCUCAACUGCCAGUGAUGUUGGUAGUCCU [Astros-Elimod],207
17,GUAUCGCUAGGAGGAUAUUUCGUUUUUCAUAGCAAUGGCUAUGCGGAGUGAUGUUCCGAUUUACCGGAAGAAGGCCUAGUGAUAC [FMN B 26],202
18,AGUAGUUGGACGGCCGCCACUAGAACAGCUUUGCCAAAGGCAGAGCACUAGAGUGAUGUUCUAGCUAGGACCGGGUCCAACUACA [Omei KL Tryp B SS A v1],54.2
19,UGACUGGACUGAAGGAGCGAGGACGGUCAUAGACCGAAAUCAGUGAUGUUGAAAGAUAAACCUCAGGUAGGUCGCAGUCUAGUCU [ArgBS 1 #SwitchBubble #StaticStem],790
20,AACUGUCAAGGCCGACAUUACUGAGGUGAUACCAGCAUCGAAAGAUGCCCUUGGCAGCACCAACUUGCAGUGAUGUUGCAAGUAA [BrourdMod 14 - Jieux - Exclusion - Theophylline A],170
21,CCUAGUCGGAUACUCAAUCCAAUGCGAGAUACCAGCGGUCUUACGCGCCCUUGGCAGCUCAUAAUGAUGAACCAGUGAUGUUGGG [theeternabot_sameState_KL_Theo_A_40],397
